From PMC13006735 (Research, 2026) come the findings set out here.

The target of experiment [1] is T1, Sudan virus (SUDV) glycoprotein GP (Sudan ebolavirus, strain  for …, UniProt Q7T9D9). The experiment is described as follows: cell-based or functional assay.
Experiment [2] deals with T1, Sudan virus (SUDV) glycoprotein GP. The experiment is described as follows: SPR. The conditions noted are these: both partners purified.

In general, Kd refers to a measure of binding affinity in units of concentration. Low readings indicate higher affinity, high ones lower affinity.

Positions count from the first letter of the chain named. Numbers in names are those of the source.

B1: ADI-15946 (antibody, V domains shown)
VH: EVQLVESGGGLVKPGGSLRLSCAASGFTFSNAWMSWVRQAPGKGLEWVGRIKSKTDGGTIDYAAPVKGRFTISRDDSKNTVYLQMTSLKTEDTAVYYCTTYTEDMRYFDWLLRGGETFDYWGQGTLVTVSS
VL: DIRLTQSPSSLSASVGDRVTITCRASHYISTYLNWYQQKPGKAPKLLIYAASNLQSGVPSRFSGSGFGTDFSLTISSLQPEDFATYHCQQSYSTPGRYTFGQGTKVEIK
notes: also called wild-type ADI-15946; parental antibody
Regarding B1, the “IC50, neutralisation of SUDV GP pseudovirus (luciferase, Huh7 cells)” value (shortened to “IC50, neutralisation”) in experiment [1] was found to be 9.16 µg/mL. In experiment [2], the equilibrium dissociation constant (Kd) is 2.24 nM.

B2:  (antibody, V domains shown)
VH: B1 VH
VL: B1 VL with A50Y, S52Y, L54R
notes: also called A50Y/S52Y/L54R-LC variant
As for B2, the “IC50, neutralisation” value in experiment [1] stood at 0.22 µg/mL.

B3:  (antibody, V domains shown)
VH: B1 VH
VL: B1 VL with H27Q, S52Y, G66R
notes: also called H27Q/S52Y/G66R-LC variant
For B3, in experiment [1], the “IC50, neutralisation” value was 0.08 µg/mL.
